{"source": "patent US20240327815A1", "key": {"[1]": {"molecular_target": "WT SARS-CoV-2 spike protein, plate-coated (MSD V-Plex) (SARS-CoV-2) (UniProt P0DTC2)", "assay": "MSD competition vs labelled ACE2"}, "[2]": {"molecular_target": "full length wild type SARS-CoV-2 spike glycoprotein on pseudotyped lentivirus (SARS-CoV-2) (UniProt P0DTC2)", "assay": "cell-based or functional assay"}, "[3]": {"molecular_target": "SARS-CoV-2 spike RBD-His (R&D Systems, cat #10500-CV) (SARS-CoV-2) (UniProt P0DTC2)", "assay": "SPR, 1:1 model"}, "[4]": {"molecular_target": "SARS-CoV-2 spike RBD-His (R&D Systems, cat #10500-CV) (SARS-CoV-2) (UniProt P0DTC2)", "assay": "SPR"}}}
{"substance": "Bamlanivimab + Etesevimab", "values": [{"measurement": "IC50", "setting": "[1]", "result": 0.07, "unit": "nM"}]}
{"substance": "REGEN-COV", "values": [{"measurement": "IC50", "setting": "[1]", "result": 0.07, "unit": "nM"}, {"measurement": "Pseudovirus Neutralization (IC50, nM)", "setting": "[2]", "result": 0.09, "unit": "nM"}, {"measurement": "Pseudovirus neutralization IC50", "setting": "[2]", "result": 0.09, "unit": "nM"}]}
{"substance": "REGN10933 (Casirivimab) (antibody)", "values": [{"measurement": "Kd", "setting": "[3]", "result": 0.0708, "unit": "nM"}, {"measurement": "Kd", "setting": "[4]", "result": 0.0708, "unit": "nM"}]}
{"substance": "REGN10987 (Imdevimab) (antibody)", "values": [{"measurement": "Kd", "setting": "[3]", "result": 0.0869, "unit": "nM"}, {"measurement": "Kd", "setting": "[4]", "result": 0.0869, "unit": "nM"}]}
{"substance": "Sotrovimab (antibody)", "values": [{"measurement": "Pseudovirus Neutralization (IC50, nM)", "setting": "[2]", "result": 0.11, "unit": "nM"}]}
